Test results: the supplement of paper PMC12764529
± gives the half width of the 95% confidence interval.

Legend:
[1] = folding stability dG unfold from trypsin proteolysis; higher = more stable
Description: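 Folding stability of de novo designed mini-proteins (<80 aa, no Cys; designed by TrROS, TrMRF, ProteinMPNN and the joint model) was measured by cDNA display proteolysis with trypsin and chymotrypsin. Each protease was used at 11 concentrations in a threefold dilution series plus a no-protease condition. K50 was inferred by Bayesian fitting of sequencing counts, and dG unfold was derived against a sequence-predicted unfolded-state K50 (Tsuboyama et al. method). Sequences shown include variable-length N-terminal GS-type padding (SAGGSAGG...) inside a display construct carrying a PA tag. Rows were kept only if the AF2 dimer inter-PAE was >15, to exclude likely homo-oligomers.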

[2] = folding stability dG unfold (combined trypsin and chymotrypsin); higher = more stable
Method in brief: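 Mini-proteins designed to be under 80 residues and free of cysteine were carried in a PA-tagged cDNA display construct and digested with trypsin and with chymotrypsin. Each protease was applied at 11 threefold-diluted concentrations, alongside a no-protease condition, before sequencing. K50 came from Bayesian fitting of the sequencing counts, and unfolding free energy was obtained by comparing it with a sequence-predicted unfolded-state K50 and a shared folded-state K50, for each protease separately or for both together. Designs were retained only if their AlphaFold2 dimer inter-PAE exceeded 15.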

Sequence | folding stability dG unfold [1] [kcal/mol] | folding stability dG unfold [2] [kcal/mol]
DWKTRTVMFPVPPGDLEEAKDRAKELAKELPPGNKIEIEMPNPDGHYFMVTVTVDPNGEIDIDVSPGMRPIS [r1_350_TrROS] | -0.418 ± 0.29 | -0.547 ± 0.38
GMAEELAVEKAKEYLAPIPKPYEIDPEKKTVTLPGGGPLKTIPILVTVKDENGNVIKVIEVPIKVVSIPPGS [r1_318_JUSTAS] | 0.0543 ± 0.093 | -0.159 ± 0.25
MAVTPEVLERMREEGVPEEVLAELGEVAVPSSDPRPEYIAELRALPGVSEVSPIPPTDPAALAALPERLLES [r1_248_JUSTAS] | -0.884 ± 0.54 | < -1
MHKVEHTIKHPGYEIKIEVTMYPNPNGNYYVPIKIEREDPKDNKPKKKPIMVPFPPGDPDDFVDWALEEILS [r1_171_TrROS] | -0.189 ± 0.17 | -0.207 ± 0.55
SAASTLKATLRPPDGSTLDVTVLDPGEGWLLQLGDGSERVSPEELEALLANDPSLVVEELTELPLEELSSAG [r14_336_JUSTAS] | 0.175 ± 0.05 | -0.654 ± 0.2
SAAVSFTPDGRPRRLEPVPPVPPVIEIPVPLNIPESDPAKKEALRKEIKEKIMKELGLPESVPVKVILLSAG [r14_453_JUSTAS] | 0.199 ± 0.15 | -0.158 ± 0.55
SAEIEELARKLAEELGAEVVEVKVEKLPNGTVKVTVVVRVNGELYKVTIEYDKETKEITIKIEKLPEEESAG [r14_784_TrROS_Hall] | 3.81 ± 0.48 | > 6
SAGGGGMPAVKEEVTPVPGGVLTTTTLPDGSVKVTVSPPSGPAVASATKPVPSGSSVTVTVTLRPAALSAGG [r13_584_JUSTAS] | 0.367 ± 0.019 | -0.335 ± 0.087
SAGGGKIKKPKPIVIRVPKNSIKVGDDVPVAVLAKALGIDPSAKAKVGEVKPPENGDYELVVVEVESSAGGS [r16_165_TrMRF] | -0.508 ± 0.34 | < -1
SAGGGMSTPVGVDSKLTEVREDTETGLITTTSVYRAGSEVTTVTESRPLGNPEDVTTLETTTTPASASAGGS [r16_89_JUSTAS] | 0.0405 ± 0.041 | -0.204 ± 0.15
SAGGGNMKTITVPASAVTSITRSPTNPNTLTITVSGSGATTTTTLPITPETKITEEGDTVTVTIPGLSAGGS [r16_22_JUSTAS] | 0.312 ± 0.037 | -0.263 ± 0.096
SAGGGVTREIPITIKTSEGEPEETITVPAKSREEVDPETGRPVSSVDPGSIEEIKAKLPSSVTSVVLSAGGS [r16_522_JUSTAS] | -0.68 ± 0.077 | < -1
SAGGIKLPPGQEIEGKIQYPFPDGMFMTSEQPIRIPPVPPPPPEVEVHLPDGERKPVRSPEEADDAASAGGS [r16_580_TrROS] | 0.0184 ± 0.049 | -0.511 ± 0.26
SAGGKWYVMVKYEWRNPDNGKERNIQVPINREALQEGDLEEAVEEAKKFAREWGYPIKKVEINLMPPGSAGG [r13_954_TrROS] | -0.106 ± 0.17 | -0.232 ± 0.46
SAGGMLLYEKTVTSSPDDEALKLAKEIEEKLTPPDYITKIKVEVTPLPNGTYKVTIPIEILPPGYPKSAGGS [r16_128_JUSTAS] | -0.0273 ± 0.076 | -0.426 ± 0.19
SAGGMTFVKVKPAPVKFGEGDKEYWVVEIVKVLEVEDVGEKPVVKAEKETIIIPKDNPDALKEAGIDASAGG [r13_670_TrMRF] | -1.02 ± 0.22 | < -1
SAGGMTSYSVTVELPETGKKITITVPNNDPNVTPEKAAAEAEKRIKAEKEKIKKELEKKPKKPSSKLKSAGG [r13_126_JUSTAS] | -0.907 ± 0.93 | < -1
SAGGMVSPEVVKAALDDGNPLPLSEIVARIEAETGLPVEVETGDDSFRIVIRDPNRDVELSSETILLSAGGS [r8_105_JUSTAS] | 0.292 ± 0.057 | -0.399 ± 0.25
SAGGNVEIERNPDGMITVEFPMKSPEQAIEEVKNFLQQQGWKIKDIPVERPPNGWVKITIPIKPPGASAGGS [r8_253_TrROS] | 0.34 ± 0.057 | 0.0774 ± 0.3
SAGGNWIMIELPLDDLKNAKPNQKVKIEWPDGKPFEVNAHRHDGRYPVLVRNPENPDKWEPIGEIEIESAGG [r13_745_TrROS] | -0.0737 ± 0.11 | < -1
SAGGPMKVQVAVWRRDPDNGEPKEVEIPMTWDNIRELLDDIPPDGRYMVKIHSPGQPQTIPLEDLKELSAGG [r13_254_TrROS] | 0.153 ± 0.42 | < -1
SAGGPNIEIEQERHPDDGMWTINVKWDNPAEIVEEIAKEIREQNRDIPIMITGPDGNPIMIPLDDIRSAGGS [r8_236_TrROS] | 0.177 ± 0.049 | -0.817 ± 0.39

Sequence | folding stability dG unfold [1] [kcal/mol] | folding stability dG unfold [2] [kcal/mol]
SAGGPVIKIPIEIMMPNNDLNKFANEIAKELQDDGYKVKINPIEFEPQRDPDGKPDYVHFRATVEVQPSAGG [r13_707_TrROS] | -0.228 ± 0.18 | < -1
SAGGSAEKLEEAIEEAKKVPEGAEVPILITVEKDGKPVVFEVKITRLPKEKKIKIDPLKAYLPEEFSAGGSA [r15_724_TrMRF] | -0.63 ± 0.39 | < -1
SAGGSAGGDGHPDILNAVFTRTETFYREGDDEPGGEGTREILVVVTGDNPENPELALKEAEEAASAGGSAGG [r6_928_TrMRF] | 0.601 ± 0.055 | 0.0849 ± 0.18
SAGGSAGGDPSRLPVITPETFNVPVPAPGGVNETVTVTVIKLPGGETIVTTTYPDGKTTTELIPSAGGSAGG [r6_111_JUSTAS] | 0.927 ± 0.058 | 0.182 ± 0.15
SAGGSAGGGMVTVEIPLEVTLTTSLTPEPGTAQTVTLPVVVTIEFPPGNPEKLKKEVEKIKKKSSAGGSAGG [r6_280_JUSTAS] | -0.456 ± 0.2 | < -1
SAGGSAGGIRIHRDNDKYVIHVPMDPNQPPENIKDILRDLPGLEDPEEIEYVPNPNGQAMIKIPSAGGSAGG [r6_516_TrROS] | -0.0828 ± 0.18 | < -1
SAGGSAGGKIEIFDQDQHDEMNQENGMPPKNYWMIRINGKPTAILPPDKPLTPNTIKNLIKEGLSAGGSAGG [r6_243_TrROS] | 0.447 ± 0.15 | -0.799 ± 0.8
SAGGSAGGKKVFLPYSVISTVVPKHFPGDEKQALIDAEFLAKKAEEAGFKDVDFVISPVPPGAPSAGGSAGG [r6_545_TrMRF] | -0.467 ± 0.23 | -0.938 ± 0.27
SAGGSAGGMITIPINTPGLSPAEAAAIKAQLEADGYPAAEVTITASPVPPVPPLGPENIYSNRGSAGGSAGG [r6_246_JUSTAS] | -0.0678 ± 0.047 | < -1
SAGGSAGGMKAKVLVLDPETGKEYDSLEELKAEVEGPVLIRNSTGELILLHRDDLKYFPLPLSLSAGGSAGG [r6_684_TrMRF] | 0.305 ± 0.12 | 0.0344 ± 0.2
SAGGSAGGMSPDVEVVTVERVITTTEPVSPSLSPEYLKAYPNATKTTTTVTVTVVPKERFEELTSAGGSAGG [r6_831_JUSTAS] | -1.44 ± 0.43 | < -1
SAGGSAGGMSTISVTVPPNVSVEEVKERLKKENPNSKYEILSVSKGPGTVKAKIAYDPLPEELLSAGGSAGG [r6_623_JUSTAS] | -0.782 ± 0.22 | < -1
SAGGSAGGMTVPASSYEGVPLKVTVSRGDENVSAEEAEVTPLPDGTVVVKLPESLPEDTEVTLESAGGSAGG [r6_630_JUSTAS] | 0.703 ± 0.047 | -0.137 ± 0.13
SAGGSAGGSAGAAPDETTVTTTVTPSPGTTTVTTTTYTYAPPTNTVTSTTTTTTIPAGTASAGGSAGGSAGG [r11_237_JUSTAS] | 0.659 ± 0.057 | 0.127 ± 0.36
SAGGSAGGSAGFLVLVTDVKENPETGTFSIYLPSTGSVKTFPPNTKAVIPAAPDEPVFVAPESAGGSAGGSA [r18_329_TrMRF] | -0.314 ± 0.11 | < -1
SAGGSAGGSAGGDIEINVNANSPEEAKKFLGEFAQEGPAEIKIEVTPPPPPMPPNDPEYKSAGGSAGGSAGG [r7_261_TrROS] | -0.235 ± 0.096 | < -1
SAGGSAGGSAGGDPLERKPVKVLVLHPDKPIELEVDVGLSPEEIARPFAEKGYEVRFEGSAGGSAGGSAGGS [r10_540_TrMRF] | -1.17 ± 0.29 | -0.836 ± 0.39
SAGGSAGGSAGGKKKKKKVSINIRGGMSVEEVKGKAQELQSQGDPDVKEVKIHISPNMWSAGGSAGGSAGGS [r10_233_TrROS] | 0.33 ± 0.11 | –
SAGGSAGGSAGGSMVAKELAEKIGAKVEGVEVKPIFDPEGKPVSEELKAKIEVLPPDYPLSAGGSAGGSAGG [r7_650_JUSTAS] | -0.537 ± 0.19 | –
SAGGSAGGSAGGTAEELKEKLPDVEFVPLEELENSVLILAKPPGGPVKLILVDGDKVVVASAGGSAGGSAGG [r7_25_TrMRF] | 0.322 ± 0.097 | –
SNVFPMEMTITVPVRDPKNGKKKTVDIPVPMYYRMEPEPYPDGKREMEPIPMEQFLEEIRRQAKELAKKGSA [r9_698_TrROS] | 0.764 ± 0.21 | –
